Measurements published in publication doi:10.1101/331207 (bioRxiv, 2018).

Molecular target: the molecule itself
Test: cryo-EM structure

B1: human LRRC8A (leucine-rich repeat-containing 8A) wild-type protein (natural protein)
chain: MIPVTELRYFADTQPAYRILKPWWDVFTDYISIVMLMIAVFGGTLQVTQDKMICLPCKWVTKDSCNDSFRGWAAPGPEPTYPNSTILPTPDTGPTGIKYDLDRHQYNYVDAVCYENRLHWFAKYFPYLVLLHTLIFLACSNFWFKFPRTSSKLEHFVSILLKCFDSPWTTRALSETVVEESDPKPAFSKMNGSMDKKSSTVSEDVEATVPMLQRTKSRIEQGIVDRSETGVLDKKEGEQAKALFEKVKKFRTHVEEGDIVYRLYMRQTIIKVIKFILIICYTVYYVHNIKFDVDCTVDIESLTGYRTYRCAHPLATLFKILASFYISLVIFYGLICMYTLWWMLRRSLKKYSFESIREESSYSDIPDVKNDFAFMLHLIDQYDPLYSKRFAVFLSEVSENKLRQLNLNNEWTLDKLRQRLTKNAQDKLELHLFMLSGIPDTVFDLVELEVLKLELIPDVTIPPSIAQLTGLKELWLYHTAAKIEAPALAFLRENLRALHIKFTDIKEIPLWIYSLKTLEELHLTGNLSAENNRYIVIDGLRELKRLKVLRLKSNLSKLPQVVTDVGVHLQKLSINNEGTKLIVLNSLKKMANLTELELIRCDLERIPHSIFSLHNLQEIDLKDNNLKTIEEIISFQHLHRLTCLKLWYNHIAYIPIQIGNLTNLERLYLNRNKIEKIPTQLFYCRKLRYLDLSHNNLTFLPADIGLLQNLQNLAITANRIETLPPELFQCRKLRALHLGNNVLQSLPSRVGELTNLTQIELRGNRLECLPVELGECPLLKRSGLVVEEDLFNTLPPEVKERLWRADKEQA
stoichiometry N: 6
